According to PMC9712113, “Medin co-aggregates with vascular amyloid-β in Alzheimer’s disease” (Nature, 2022):

Target: the molecule itself
Assay: Thioflavin T fluorescence seeding assay; 10 µM monomeric Met-Aβ or CT-medin with 0.5 µM sonicated pre-formed seeds of either peptide; 50 mM Tris pH 8, 25 µM ThT, 30 °C

B1: C-terminal fragment of medin (peptide)
peptide: EVTGIITQGARNFGSVQFVASYK
notes: C-terminal fragment of medin / MFG-E8, identified in tissue extracts by mass spectrometry; also called CT-medin; C-terminal medin fragment; source: synthetic peptide (Intavis Multipep RSi solid phase synthesis, purity >90%)
B1: binds.
